The supplement of paper PMC12667976
± gives the standard error.

B1: library; numbered along this chain (parent)
chain: MATDAALRRLLRLHRTEIAVAVDSAFPLLHALADHDVVPEDKFQETLHLKEKEGCPQAFHALLSWLLTQDSTAILDFWRVLFKDYNLERYGRLQPILDSFPKDVDLSQPRKGRKPPAVPKALVPPPRLPTKRKASEEARAAAPAALTPRGTASPGSQLKAKPPKKPESSAEQQRLPLGNGIQTMSASVQRAVAMSSGDVPGARGAVEGILIQQVFESGGSKKCIQVGGEFYTPSKFEDSGSGKNKARSSSGPKPLVRAKGAQGAAPGGGEARLGQQGSVPAPLALPSDPQLHQKNEDECAVCRDGGELICCDGCPRAFHLACLSPPLREIPSGTWRCSSCLQATVQEVQPRAEEPRPQEPPVETPLPPGLRSAGEEVRGPPGEPLAGMDTTLVYKHLPAPPSAAPLPGLDSSALHPLLCVGPEGQQNLAPGARCGVCGDGTDVLRCTHCAAAFHWRCHFPAGTSRPGTGLRCRSCSGDVTPAPVEGVLAPSPARLAPGPAKDDTASHEPALHRDDLESLLSEHTFDGILQWAIQSMARPAAPFPS

Variants of: B1
Experiment: AIRE transcriptional activation functional score (insulin promoter-GFP; nonsense median 0, synonymous median 1) (normalised score); higher = higher AIRE activity (more reporter activation)
Settings: with insulin promoter-GFP reporter in HEK293
Outline: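 Functional scores come from comparing select with non-select enrichment of each variant and subtracting wild type. Codon-optimized AIRE NNN-codon libraries across three regions were integrated via Bxb1 recombinase into HEK293 landing-pad cells with an insulin core promoter-GFP reporter, and integrants sorted at day 7 were expanded 7 days before top 10% GFP and unselected populations were tile-sequenced. Variants needed 10 counts per million in non-select, and values were rescaled to nonsense median 0 and synonymous median 1 before averaging over biological replicates.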

| Variant | AIRE transcriptional activation functional score |
| --- | --- |
| A5V | 1.45 ± 0.2 |
| S99D | 0.205 ± 0.069 |
| S99I | 0.822 ± 0.33 |
| R113F | 1.12 ± 0.14 |
| G204Q | 0.897 ± 0.17 |
| G498H | 1.42 ± 0.036 |
| R445P | 0.738 ± 0.067 |
| L49N | -0.822 ± 0.12 |
| L49T | -0.364 ± 0.53 |
| Q157K | 0.787 ± 0.22 |
| A191Y | -0.337 ± 0.2 |
| T344M | 1.37 ± 0.031 |
| T344Q | 1.12 ± 0.21 |
| I309G | 1.11 ± 0.13 |
| I309W | 1.55 ± 0.017 |
| T468I | 1.16 ± 0.17 |
| M388V | 1.49 ± 0.45 |
| D526C | -0.576 ± 0.2 |
| A452H | 0.816 ± 0.12 |
| P116L | 1.07 ± 0.43 |
| C449H | 0.515 ± 0.12 |
| S239F | 1.06 ± 0.33 |
| L414I | 1.45 ± 0.096 |
| P124E | 0.934 ± 0.7 |

| Variant | AIRE transcriptional activation functional score |
| --- | --- |
| V206M | 0.51 ± 0.084 |
| A493Y | 1.13 ± 0.092 |
| A141N | 0.447 ± 0.15 |
| L320N | 0.948 ± 0.094 |
| D103F | 0.826 ± 0.13 |
| L370D | 0.434 ± 0.36 |
| G477Y | 0.642 ± 0.12 |
| G180L | 0.0432 ± 0.4 |
| L418H | 0.443 ± 0.16 |
| L418T | 0.829 ± 0.11 |
| G333F | 1.02 ± 0.16 |
| A373E | 1.28 ± 0.12 |
| L511H | 0.98 ± 0.25 |
| V118L | 0.953 ± 0.44 |
| A271M | 1.38 ± 0.051 |
| E167N | 1.8 ± 0.078 |
| G228I | -0.341 ± 0.56 |
| C475Q | 0.568 ± 0.1 |
| G369W | 0.914 ± 0.18 |
| P325S | 1.21 ± 0.33 |
| A170T | 0.748 ± 0.48 |
| R456W | -0.304 ± 0.33 |
| R456H | 1.2 ± 0.076 |
| E237C | 1.16 ± 0.11 |

| Variant | AIRE transcriptional activation functional score |
| --- | --- |
| V80Y | 0.606 ± 0.068 |
| A403G | 1.26 ± 0.23 |
| D98G | -0.489 ± 0.61 |
| E359L | 1.01 ± 0.22 |
| E359M | 1.08 ± 0.08 |
| E363L | 1.29 ± 0.24 |
| H292W | 1.03 ± 0.047 |
| E347P | 1.14 ± 0.2 |
| G467Y | 0.488 ± 0.17 |
| L488S | 0.854 ± 0.22 |
| L488D | 0.449 ± 0.34 |
| P200L | 1.12 ± 0.2 |
| L516A | 0.556 ± 0.12 |
| L516D | 0.758 ± 0.17 |
| D84T | 0.74 ± 0.53 |
| E207F | 0.67 ± 0.11 |
| L47A | 0.636 ± 0.44 |
| L47T | -0.713 ± 0.1 |
| V348K | 0.974 ± 0.081 |
| Q534S | 0.372 ± 0.079 |
| S372E | 1.3 ± 0.15 |
| A117T | 1.16 ± 0.36 |
| C55L | -0.0993 ± 1.2 |
| P101H | 1.17 ± 0.39 |

| Variant | AIRE transcriptional activation functional score |
| --- | --- |
| A461K | 1.18 ± 0.052 |
| A461I | 0.816 ± 0.25 |
| A461T | 0.39 ± 0.7 |
| Q530A | 0.824 ± 0.38 |
| D288W | 1.59 ± 0.078 |
| G112Y | 0.893 ± 0.066 |
| G438P | 0.303 ± 0.33 |
| H30C | 0.429 ± 0.26 |
| S234T | 0.61 ± 0.63 |
| P416G | 0.937 ± 0.33 |
| A261M | 1.19 ± 0.06 |
| A261G | 1.01 ± 0.21 |
| L122G | 1.29 ± 0.35 |
| E171D | 0.998 ± 0.39 |
| L175R | 1.06 ± 0.47 |
| C434S | 0.275 ± 0.14 |
| L406H | 1.19 ± 0.13 |
| P365N | 0.389 ± 0.25 |
| K222E | 0.916 ± 0.19 |
| G227P | 0.459 ± 0.12 |
| L106P | -1.47 ± 0.87 |
| L106C | -0.159 ± 0.31 |
| L106A | -0.169 ± 0.18 |
| E88W | 0.779 ± 0.24 |

| Variant | AIRE transcriptional activation functional score |
| --- | --- |
| D410Q | 1.2 ± 0.28 |
| D312E | 0.977 ± 0.12 |
| D478V | 0.89 ± 0.17 |
| D478Q | 0.891 ± 0.1 |
| V443E | 1.12 ± 0.15 |
| V443R | 0.0498 ± 0.11 |
| P466M | 0.678 ± 0.14 |
| A321V | 1.05 ± 0.26 |
| P398S | 0.979 ± 0.31 |
| K50P | -0.341 ± 0.68 |
| K131P | 0.0359 ± 0.37 |
| G486H | 1.27 ± 0.27 |
| V20I | 1.31 ± 0.54 |
| R356Y | 1.03 ± 0.2 |
| R356G | 1.06 ± 0.19 |
| R356E | 1.09 ± 0.1 |
| L428T | 0.817 ± 0.26 |
| M194N | 0.73 ± 0.081 |
| G274N | 1 ± 0.34 |
| Q276K | 0.954 ± 0.22 |
| S135V | 0.924 ± 0.21 |
| Q290T | 0.55 ± 0.43 |
| Q44S | 0.392 ± 0.37 |
| G462F | 1.26 ± 0.15 |

| Variant | AIRE transcriptional activation functional score |
| --- | --- |
| K253M | 1.04 ± 0.18 |
| G382R | 1.03 ± 0.32 |
| G382A | 0.906 ± 0.34 |
| G382V | 1.22 ± 0.18 |
| A140T | 1.12 ± 0.5 |
| H319R | 1.03 ± 0.17 |
| A193T | 1.15 ± 0.4 |
| G421H | -0.132 ± 0.31 |
| F453D | 0.307 ± 0.1 |
| S491V | 0.901 ± 0.37 |
| G218R | 1.13 ± 0.25 |
| Q182T | 1.69 ± 0.48 |
| Q182Y | 0.181 ± 0.057 |
| Q182N | 1.54 ± 0.41 |
| Q182K | 1.73 ± 0.34 |
| Q182W | 0.0615 ± 0.37 |
| Y394F | 0.973 ± 0.035 |
| Y394G | 0.882 ± 0.15 |
| P176H | 1.07 ± 0.25 |
| Q212S | 1.14 ± 0.32 |
| Q212H | 1.68 ± 0.18 |
| Q212F | 0.392 ± 0.063 |
| M536E | 0.588 ± 0.14 |
| M536Y | -0.0719 ± 0.35 |

| Variant | AIRE transcriptional activation functional score |
| --- | --- |
| K161W | 0.29 ± 0.037 |
| K161D | 1.13 ± 0.7 |
| K161Q | 0.799 ± 0.26 |
| P368R | 1.04 ± 0.22 |
| V301Y | 1.14 ± 0.17 |
| V479I | 0.977 ± 0.18 |
| V479Y | 0.896 ± 0.28 |
| S153I | 1.03 ± 0.44 |
| R378H | 0.92 ± 0.31 |
| Q173K | 1.44 ± 0.27 |
| D297N | 0.25 ± 0.15 |
| D297I | 0.487 ± 0.36 |
| A121P | 0.967 ± 0.48 |
| A121F | 1.22 ± 0.13 |
| S338I | 1.18 ± 0.27 |
| P499N | 0.266 ± 0.5 |
| T46E | 1.4 ± 0.057 |
| D41A | 1.59 ± 0.35 |
| E522I | 0.133 ± 0.3 |
| H458S | 0.164 ± 0.44 |
| P492T | 1.31 ± 0.26 |
| P492E | 0.938 ± 1.1 |
| S518I | 0.907 ± 0.25 |
